According to patent US20190153459A1, “RECOMBINANT POLYNUCLEOTIDE INVOLVED IN LACTONE SYNTHESIS AND PROCESS FOR SYNTHESIS OF LACTONES THEREOF” (Council of Scientific & Industrial Research, priority 2016, published 2019):

Experiments:
MiEH2 [1] = target: T1, MiEH2 (Mangifera indica, UniProt A0A1U9ZCB5); assay: MiEH2 activity assay and enzyme kinetics with epoxide substrates (HRMS); assay type: biochemical; conditions: for product formation by MiEH2 with substrate (HRMS extracted ion chromatogram): 200 μM substrate, pH 7.0, 30° C., FIG. 3; for Vmax: recombinant MiEH2, substrate kinetics
T1 sequence (A0A1U9ZCB5 1-318): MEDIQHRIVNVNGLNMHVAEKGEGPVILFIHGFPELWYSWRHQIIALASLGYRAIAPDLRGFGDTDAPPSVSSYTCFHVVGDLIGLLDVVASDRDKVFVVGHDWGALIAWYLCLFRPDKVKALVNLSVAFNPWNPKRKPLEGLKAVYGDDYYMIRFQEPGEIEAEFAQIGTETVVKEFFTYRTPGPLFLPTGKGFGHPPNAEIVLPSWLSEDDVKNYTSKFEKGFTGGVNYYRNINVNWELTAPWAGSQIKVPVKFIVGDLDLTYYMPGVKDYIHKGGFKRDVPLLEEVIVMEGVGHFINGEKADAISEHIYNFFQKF
Procedure: (§1) Similar activity assays were carried out with protein expressed from empty vector for confirmation of EH2 activity. Optimum pH was determined by calculating activity at varied range of pH in phosphate citrate buffer at 30° C., whereas temperature optima was determined by calculating MiEH2 activity in phosphate citrate buffer pH 7 at various temperatures. After incubation and catalytic activity of EH 2, products were extracted in chloroform:methanol (2:1); completely dried in vacuum evaporator and reconstituted in the methanol. HRMS analysis carried out by accurate mass (molecular ion) identification. […] Extracted compounds from CSO and TSO assay reactions were separated by water (A):methanol (B) solvent gradient, 0-1 min 80% (A)/20% (B); 1-2 min 60% (A)/40% (B); 2-4 min 40% (A)/60% (B); 4-11 min 20% (A)/80% (B); 11-16 min 0% (A)/100% (B), hold for 2 min and again back to 80% (A)/20% (B) in 3 min with 2 min hold at flow rate 500 μl min^−1. […] Quantitative analysis of CSO and TSO assay products was done by plotting standard graph of product standards. Full scans for both programs were acquired on positive ion mode with AGC target value of 1E6, resolution of 70,000 at scan range 100-500 m/z, and maximum ion injection time (IT) of 250 ms.

[2] = substrate: c1ccc([C@H]2O[C@@H]2c2ccccc2)cc1; assay: as above; assay type: biochemical, Mangifera indica; conditions: other: recombinant MiEH2, substrate kinetics; pH 7.0
Procedure: as §1

[3] = substrate: c1ccc([C@H]2O[C@H]2c2ccccc2)cc1; assay: as above; assay type: biochemical, Mangifera indica; conditions: other: recombinant MiEH2, substrate kinetics; pH 7.0
Procedure: as §1

MiEH2 [4] = target: T1, MiEH2; assay: Optimum pH and temperature of MiEH2 activity; assay type: biochemical
Procedure: Similar activity assays were carried out with protein expressed from empty vector for confirmation of EH2 activity. Optimum pH was determined by calculating activity at varied range of pH in phosphate citrate buffer at 30° C., whereas temperature optima was determined by calculating MiEH2 activity in phosphate citrate buffer pH 7 at various temperatures. After incubation and catalytic activity of EH 2, products were extracted in chloroform:methanol (2:1); completely dried in vacuum evaporator and reconstituted in the methanol. HRMS analysis carried out by accurate mass (molecular ion) identification. Identified products from assay reaction were confirmed with mass and retention time indices of authentic standards R,R hydrobenzoin and meso hydro benzoin. Extracted compounds from CSO and TSO assay reactions were separated by water (A):methanol (B) solvent gradient, 0-1 min 80% (A)/20% (B); 1-2 min 60% (A)/40% (B); 2-4 min 40% (A)/60% (B); 4-11 min 20% (A)/80% (B); 11-16 min 0% (A)/100% (B), hold for 2 min and again back to 80% (A)/20% (B) in 3 min with 2 min hold at flow rate 500 μl min^−1. […] Quantitative analysis of CSO and TSO assay products was done by plotting standard graph of product standards. Full scans for both programs were acquired on positive ion mode with AGC target value of 1E6, resolution of 70,000 at scan range 100-500 m/z, and maximum ion injection time (IT) of 250 ms.

[5] = system: ethylene treated mango fruits; assay: Transient over expression of SEQ ID No. 1 (MiEH2) in mango fruits via agroinfiltration, lactone content by GC-FID; assay type: in vivo, Mangifera indica
Procedure: The full length sequence of MiEH2, i.e. SEQ ID No. 1 was cloned in a pBI121 plant expression vector between CaMV 35S promoter and GusA gene. Terminal primers were designed (Table 1A) to clone genes at BamHI restriction site. Resulted correct oriented construct pBI121+SEQ ID No. 1 and pBI121 empty vector as control were transformed in the Agrobacterium GV3101 strain for transient expression studies. Separate Agrobacterium cultures (5 mL) were initiated from individual colonies in YEB medium having appropriate antibiotics and incubated overnight at 28° C. This culture was transferred to 50 mL induction medium comprising 0.5% beef extract, 0.1% yeast extract, 0.5% peptone, 0.5% sucrose, 2 mM MgSO4, […] acetosyringone, 10 mM MES, pH 5.6, having appropriate antibiotics, and again grown overnight. Cultures were recovered by centrifugation on the next day, resuspended in infiltration medium (10 mM MgCl2, 10 mM MES, […] acetosyringone, pH 5.6) till optical density reached 1.0. This suspension was again incubated at 28° C. with gentle agitation for 2 hrs.
Over expression studies for EH2 were carried out by Agrobacterium mediated infiltration in ethylene treated mango fruits at 3DAH stage by using hypodermic syringe. Equal volumes of said constructs i.e. pBI121+MiEH2 and pBI121 empty vector construct were used for infiltration in two different halves of same mango fruit separated by fruit stone. […] Thus control (empty vector) and test over expressions were carried out in same fruit to avoid error in lactone content analysis. Five distinct mango fruits were used for overexpression study of MiEH2. Infiltrated fruits were kept at 25° C. for 2 days in 12 hr dark and 12 hr light conditions, after 2 days; part from each fruit halves was checked by Gus staining (Kapila et al. 1997; Spolaore et al. 2001) to confirm expression of MiEH2 under 35S promoter along with GusA, remaining part of fruit pulp stored in −80° C. until used for lactone analysis by gas chromatography. […] Lactones were analysed from control and test region of fruits. A total of 8 lactones viz. γ-butyrolactone, δ-valerolactone, γ-hexalactone, δ-hexalactone, γ-octalactone, γ-octalactone, γ-decalactone and δ-decalactone were detected from all tissues in GC-MS analysis.
GC-MSD and GC-FID analysis for lactones was carried out using a 7890B GC system Agilent Technologies coupled with Agilent 5977A MSD (Agilent technologies, CA, USA). […] To understand effect of gene over expression by transient expression on lactone biosynthesis, qualitative and quantitative analysis for lactones alone was carried out in the present study. […] Absolute quantification was done using internal standard by normalizing concentrations of all the lactones with that of known concentration of nonyl acetate.

[6] = pBI121+SEQ ID No. 1 vs empty pBI121 vector in same fruit, 2 days post infiltration

Molecule: c1ccc([C@H]2O[C@H]2c2ccccc2)cc1 [CSO, cis-stilbene oxide]
- product formation by MiEH2 with substrate (HRMS extracted ion chromatogram) (MiEH2 [1]): product formation
- Vmax (MiEH2 [1]): CSO- 26.5252 ± 4.81 μM min^−1mg^−1

Molecule: c1ccc([C@H]2O[C@@H]2c2ccccc2)cc1 (relative stereo) [TSO, trans-stilbene oxide]
- product formation by MiEH2 with substrate (HRMS extracted ion chromatogram) (MiEH2 [1]): product formation
- Vmax (MiEH2 [1]): TSO- 1055.55 ± 55.55 μM min^−1mg^−1

B1: MiEH2 (Mangifera indica) (protein)
chain: T1 sequence (A0A1U9ZCB5 1-318)
- Km [2]: TSO- 0.113 ± 0.003 mM
- Km [3]: CSO- 0.165 ± 0.044 mM

B2: MiEH2: recombinant epoxide hydrolase 2 polypeptide of Mangifera indica, 318 amino acids, 6×His tagged (protein, listed as Mangifera indica)
chain: T1 sequence (A0A1U9ZCB5 1-318)
modifications: 6xHis tag
notes: recombinant epoxide hydrolase 2 polypeptide of Mangifera indica, 318 amino acids, 6×His tagged
- Optimum temperature (MiEH2 [4]; phosphate citrate buffer pH 7, various temperatures): 45 °C
- Optimum pH (MiEH2 [4]; phosphate citrate buffer, 30° C., varied pH): 8

B3: SEQ ID No. 1: 957 bp polynucleotide encoding epoxide hydrolase 2, cloned in pBI121 plant expression vector, agroinfiltrated in mango (nucleic acid)
DNA: ATGGAAGATATACAGCACAGAATTGTGAATGTCAATGGCTTAAACATGCACGTGGCAGAGAAAGGCGAAGGTCCAGTCATTCTCTTCATTCACGGTTTTCCCGAACTGTGGTACTCCTGGCGGCATCAGATCATCGCCTTGGCTTCCCTCGGCTACCGAGCCATTGCTCCGGATCTACGTGGCTTCGGTGATACTGACGCGCCGCCGTCTGTCTCGAGTTACACGTGTTTCCACGTGGTGGGGGACCTCATTGGACTTCTCGACGTCGTTGCCTCTGATCGGGATAAGGTTTTCGTGGTGGGCCATGATTGGGGTGCTCTTATTGCTTGGTACTTGTGCTTGTTTAGACCGGATAAGGTCAAAGCTTTGGTCAACTTGAGTGTTGCGTTTAATCCCTGGAACCCCAAGAGGAAGCCACTTGAGGGTTTGAAAGCTGTTTATGGTGACGATTATTACATGATCAGATTTCAGGAGCCTGGTGAGATAGAAGCTGAGTTTGCCCAGATTGGTACTGAGACAGTTGTCAAGGAATTCTTTACATACAGGACACCTGGTCCTCTTTTTCTCCCTACAGGTAAAGGATTTGGACATCCCCCAAATGCTGAAATTGTCTTACCCTCTTGGCTATCAGAGGATGATGTTAAAAACTACACCAGCAAATTTGAGAAAGGCTTTACAGGAGGAGTGAACTATTACCGTAATATAAACGTGAACTGGGAACTTACAGCTCCTTGGGCCGGGAGTCAAATAAAGGTTCCTGTTAAGTTCATCGTGGGTGACCTGGACCTGACATATTATATGCCAGGAGTCAAGGATTACATACACAAAGGTGGGTTCAAGCGAGATGTGCCATTATTGGAAGAAGTGATTGTAATGGAAGGTGTAGGTCACTTCATTAATGGAGAAAAGGCTGATGCAATCAGTGAGCACATATACAACTTTTTTCAGAAGTTCTGA
modifications: cDNA
notes: 957 bp polynucleotide encoding epoxide hydrolase 2, cloned in pBI121 plant expression vector, agroinfiltrated in mango
- lactone content on transient over expression ([5]; Alphonso mango): significant increase
- increase in γ-hexalactone content compared to control tissue [5, 6]: 1.96 fold
- increase in δ-hexalactone content compared to control tissue [5, 6]: 1.98 fold
- increase in δ-valerolactone content compared to control tissue [5, 6]: 1.46 fold
